The values that follow come from patent US20250296995A1 (GlaxoSmithKline, published 2025).

Substitutions are numbered along the chain they refer to.

The target in the assay is T1, recombinant Plasmodium falciparum circumsporozoite protein (CSP) (Plasmodium falciparum, UniProt Q7K740 21-375).
T1 construct: also called recombinant CSP
Nature of the assay: SPR, recombinant CSP.

T1 sequence (Q7K740 21-375 limits assumed): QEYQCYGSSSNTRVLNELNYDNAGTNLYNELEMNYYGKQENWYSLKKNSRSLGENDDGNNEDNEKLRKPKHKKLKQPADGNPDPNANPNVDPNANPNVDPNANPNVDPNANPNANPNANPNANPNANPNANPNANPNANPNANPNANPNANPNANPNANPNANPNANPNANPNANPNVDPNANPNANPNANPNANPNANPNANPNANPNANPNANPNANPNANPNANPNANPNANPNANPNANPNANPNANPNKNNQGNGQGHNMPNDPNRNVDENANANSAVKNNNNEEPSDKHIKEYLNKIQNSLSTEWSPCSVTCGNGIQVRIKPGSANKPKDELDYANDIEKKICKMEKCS

B1: AB-000391 (antibody, V domains shown)
VH: EVQLVQSGGGLVQPGGSLRLSCVASGFTLSSYEMNWVRQAPGKGLEWVSFISSSGSKKRYADSVKGRFTVSRDNAKNSLSLQMNSLRAEDTAVYYCARDHSTSDREYGLDVWGQGATVTVSS
VL: DVVMTQSPLSLPVTLGQPASISCRSGQSLLYSDGNTYLYWFQQRPGQSPRRLIYKVSNRDPGVPERFSGSGSGTDFTLKISRVEAEDVGIYFCLQGTHWPYTFGRGTKLEIK
On to B1, for which the Kd came out at 0.616 nM, the koff was 0.000535 s⁻¹ and the association rate constant (kon) stood at 869000 M⁻¹ s⁻¹.

B2: AB001578 (antibody, V domains shown)
VH: QVQLVESGGGVVQPGRSLRLSCAASGFSFSNYGMHWVRQAPGKGLEWVAIIWYDGSNKYYADSVKGRFTISRDNSKNTLYLQMNSLRAEDTAVYYCARDGTIWDDSRGYILDYWGQGTLVTVSS
VL: EIVLTQSPATLSLSPGERATLSCRASQGVSSYLAWYQQKPGQAPRLLIYDASNRATGIPARFSGSGSGTDFTLTISSLEPEDFAVYYCQQRSNWPPTFGPGTKVDIK
As for B2, the dissociation constant (Kd) came to 2.64 nM, the koff is 0.000977 s⁻¹ and the kon was 369000 M⁻¹ s⁻¹.

B3: AB-000325 (antibody, V domains shown)
VH: QVQLVESGGGVVQPGRSLRLSCAASRFPFKNYGMHWVRQAPGKGLEWVALIWFDGSNKFYVDSVEGRFTISRDNSNNMLYLEMNSLRADDTAVYYCARAGRYDDSGYLDYWGQGTLVTVSS
VL: EIVMTQSPATLSVSPGERATLSCRASQSVGSKLAWYQHKPGQAPRLLIYGASTRATGIPARFSGSGSGTEFTLTVSSLQSEDFAVYYCQQYNHWYTFGQGTKLEIK
With B3, the dissociation constant Kd was 0.0529 nM, the dissociation rate constant (koff) came out at 0.00215 s⁻¹ and the on-rate constant (kon) is 4.07e+07 M⁻¹ s⁻¹.

B4: AB001558 (antibody, V domains shown)
VH: QVQLVESGGGVVQPGRSLRLSCAASGFTFSSYGMHWVRQAPGKGLEWVAVIWYDGNNKYYVDSVKGRFTISRDNSKNTLYLQMNSLRAEDTAVYYCARDHDADYVEKWGAFDLWGQGTMVTVSS
VL: B3 VL with G30S, K32N, H38Q, T53A, V75I, H93N, W94G, Y95R, L103V, K106T
Take B4: the Kd amounted to 40.2 nM, the koff was 0.000797 s⁻¹ and the kon was 19800 M⁻¹ s⁻¹.

B5: AB001554 (antibody, V domains shown)
VH: QVQLVESGGGVVQPGRSLRLSCAASGFTFSSYGMHWVRQAPGKGLEWVAVIWYDGSNKYHADSVKGRFTISRDNSKNTLYLQMNNLRSEDTAVYYCAKDETLWFGELSDGFDIWGQGTMVTVSS
VL: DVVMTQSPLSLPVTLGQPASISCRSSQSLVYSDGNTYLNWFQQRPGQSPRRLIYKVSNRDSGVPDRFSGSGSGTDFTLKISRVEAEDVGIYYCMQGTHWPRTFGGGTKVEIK
Take B5: the dissociation constant (Kd) is 2.29 nM, the dissociation rate constant (koff) was determined as 0.000716 s⁻¹ and the on-rate constant (kon) worked out at 313000 M⁻¹ s⁻¹.

B6: AB-000376 (antibody, V domains shown)
VH: QVQLVESGGGVVQPGRSLRLSCTASGFTFSNYGMHWVRQAPGRALEWVAIIWHDGSNKYYADSVKGRFTISRDNSKNTLYLQMNNVRVEDTAVYHCAKVGGFGELYEAFDFWGQGTLVTVSS
VL: DIQMTQSPSTLSASVGDRVTITCRASHSISNWLAWYQQKPGKAPRLLIYKASSLNSGVPSRFSGSASGTEFTLTISSLQPDDFATYFCQQYNAYWTFGQGTKVEIK
Consider B6, for which the Kd came out at 0.201 nM, the koff amounted to 0.000866 s⁻¹ and the on-rate constant (kon) was found to be 4.31e+06 M⁻¹ s⁻¹.

B7: AB001529 (antibody, V domains shown)
VH: QVQLVESGGGVVQPGRSLRLSCVASGFSFRSYGMHWVRQAPGKGLEWVAIIWYDGSNKYYAHSVKGRFTISRDNSKNTLYLQMNSLRAEDTAIYYCAKDGGTETTWGNAFDIWGQGTMVTVSS
VL: B6 VL with H27Q, N31S, R45K, N55E, A66G, S76N, S77N, F87Y, A93S
For B7, the Kd was found to be 1.64 nM, the off-rate (koff) was found to be 0.00108 s⁻¹ and the association rate constant (kon) came to 660000 M⁻¹ s⁻¹.

B8: AB001396 (antibody, V domains shown)
VH: QVQLVESGGGVVQPGRSLRLSCAASGFTFSSYGMHWVRQAPGKGLEWVAIIWYDGSHKYYADSVKGRFTISRDNSKNTLYLQMNSLRAEDTAVYHCARVYQPTYYYDSSRGEAFDIWGQGTMVTVSS
VL: B6 VL with H27Q, N31S, R45K, S53N, N55G, A66G, F87Y, A93S
B8: the Kd is 1.47 nM, the koff was determined as 0.000393 s⁻¹ and the kon was 268000 M⁻¹ s⁻¹.

What is called Kd is a measure of binding affinity in units of concentration. A word on the koff: it is a measure of how fast the partners let go of each other. By kon is commonly meant the second-order rate constant of association.
